In US20210371527A1 (published 2021):
Where two headings read alike, the source gives them in different places.

B1: deferoxamine conjugated humanized IAB41-1 minibody (other)
chain: EIVLTQSPATLSLSPGERATLSCSARSSVSYLYWYQQKPGQAPRLLIYDTSNLASGIPDRFSGSGSGTDFTLTISRLEPEDAAVYYCQQWSDYPLTFGGGTKLEIKGSTSGGGSGGGSGGGGSSQVQLVQSGAEVKKPGASVKVSCKASGYSFANYWMHWVRQAPGQRLEWIGALYPGNVDTTYNQKFQGRVTITRDTSASTAYMELSSLRSEDTAVYYCTRMGTTLEAPLDYWGQGTLVTVSSEPKSSDKTHTCPPCPPCGGGSSGGGSGGQPREPQVYTLPPSREEMTKNQVSLTCLVKGFYPSDIAVEWESNGQPENNYKTTPPVLDSDGSFFLYSKLTVDKSRWQQGNVFSCSVMHEALHNHYTQKSLSLSPG
modifications: deferoxamine (Df) chelator conjugated; sites of conjugation not stated
B2: humanized IAB41-1 minibody (other)
chain: B1 chain

How the values were obtained:
[1] = target: T1, human CD4 on HPB-ALL cells (UniProt P01730 26-458); assay: flow cytometry
[2] = target: T1, human CD4 on HPB-ALL cells; assay: flow cytometry; remark: listed apart in the source

Row | Binder | EC50 [1] [nM] | EC50 [2] [nM]
1 | B1 | 3.05 | 
2 | B2 |  | 1.77
